Test results: paper PMC11555413 (Nature Communications, 2024)

B1: Myc-APRIL (ligand, UniProt O75888 116-250, looked up)
chain: SVLHLVPINATSKDDSDVTEVMWQPALRRGRGLQAQGYGVRIQDAGVYLLYSQVLFQDVTFTMGQVVSREGQGRQETLFRCIRSMPSHPDRAYNSCYSAGVFHLHQGDILSVIIPRARAKLNLSPHGTFLGFVKL
B2: APRIL-Myc (ligand, UniProt O75888 116-250, looked up)
chain: B1 chain

Target: the molecule itself
Test: SEC

Protein | stoichiometry N
B1 | 3
B2 | 3
